Assay results reported in patent US20260234255A1 (Genmab, published 2026).

T1: human CD30 (human, UniProt P28908 19-595)
T1 sequence: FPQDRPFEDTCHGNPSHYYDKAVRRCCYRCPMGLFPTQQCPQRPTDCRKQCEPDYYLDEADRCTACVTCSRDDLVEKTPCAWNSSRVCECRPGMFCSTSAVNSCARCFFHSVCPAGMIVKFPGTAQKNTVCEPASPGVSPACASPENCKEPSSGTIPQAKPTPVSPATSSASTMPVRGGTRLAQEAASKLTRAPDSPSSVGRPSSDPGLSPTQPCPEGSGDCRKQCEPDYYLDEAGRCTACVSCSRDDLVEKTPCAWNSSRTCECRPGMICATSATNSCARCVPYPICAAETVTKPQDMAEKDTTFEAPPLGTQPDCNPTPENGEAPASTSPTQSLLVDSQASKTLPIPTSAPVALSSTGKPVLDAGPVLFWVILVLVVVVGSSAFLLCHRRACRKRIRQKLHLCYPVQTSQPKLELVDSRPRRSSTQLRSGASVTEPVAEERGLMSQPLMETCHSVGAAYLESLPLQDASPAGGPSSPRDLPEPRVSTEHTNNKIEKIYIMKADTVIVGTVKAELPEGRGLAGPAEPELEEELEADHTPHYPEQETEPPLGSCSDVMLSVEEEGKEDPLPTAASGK

T2: rhesus monkey (Macaca mulatta) CD30 (rhesus monkey, UniProt P28908 19-595 (human entry))
T2 construct: also called mmCD30
T2 chain: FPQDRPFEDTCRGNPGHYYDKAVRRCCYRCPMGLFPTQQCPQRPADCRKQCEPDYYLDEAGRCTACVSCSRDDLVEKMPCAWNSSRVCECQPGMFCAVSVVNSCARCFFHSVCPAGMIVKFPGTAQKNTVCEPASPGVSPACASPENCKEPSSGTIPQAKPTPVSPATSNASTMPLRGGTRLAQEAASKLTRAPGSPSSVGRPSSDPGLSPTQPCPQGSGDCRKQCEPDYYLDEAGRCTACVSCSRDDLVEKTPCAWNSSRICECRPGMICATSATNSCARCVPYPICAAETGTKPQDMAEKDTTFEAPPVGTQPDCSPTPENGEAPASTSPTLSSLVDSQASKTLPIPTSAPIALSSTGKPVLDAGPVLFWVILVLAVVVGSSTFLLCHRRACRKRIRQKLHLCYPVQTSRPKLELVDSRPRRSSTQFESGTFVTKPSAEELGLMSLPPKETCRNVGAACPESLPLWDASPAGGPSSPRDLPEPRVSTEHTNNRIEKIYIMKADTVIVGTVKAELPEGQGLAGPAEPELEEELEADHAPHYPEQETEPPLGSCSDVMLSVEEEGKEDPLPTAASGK


Tests used:
[1] = target: T3, cynomolgus monkey CD3 (cynomolgus monkey, UniProt Q95LI5 22-198); assay: flow cytometry, cynomolgus monkey T cells (PBMCs)
T3 construct: CD3 endogenously expressed on T cells within cynomolgus monkey PBMCs
T3 sequence (Q95LI5 22-198): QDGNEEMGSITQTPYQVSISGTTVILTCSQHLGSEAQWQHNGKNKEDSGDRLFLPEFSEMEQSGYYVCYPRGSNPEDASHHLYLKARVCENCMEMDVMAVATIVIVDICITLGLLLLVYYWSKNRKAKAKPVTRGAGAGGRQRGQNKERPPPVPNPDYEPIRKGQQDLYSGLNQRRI
Protocol: Cynomolgus monkey PBMCs (Tebu-Bio, The Netherlands; cat. no. PBMCMFA-10) or purified human T cells were plated in polystyrene 96-well round-bottom plates. T cells were derived from human donor buffy coats (Sanquin, Amsterdam, The Netherlands) and isolated using the RosetteSep human T cell enrichment cocktail (Stemcell Technologies, France, cat. no. 15061) according to manufacturer's instructions. […] After washing twice in staining buffer, cells were incubated in 50 μL secondary R-PE-conjugated goat-anti-human IgG antibody at 4° C. for 30 min (1:400 dilution). After washing twice in staining buffer, T cells were stained for T-cell markers CD3 (1:100; Miltenyi biotec, clone 10D12, conjugated to APC), CD4 (1:50; eBioscience, clone OKT4, conjugated to APC-Cy7), CD8 (1:100; Biolegend, clone RPA-T8, conjugated to AF700) and T-cell activation markers CD69 (1:50; BD Biosciences, clone AB2439, conjugated to FITC), CD25 (1:50; eBioscience, clone BC96, conjugated to PE-Cy7) and CD279/PD1 (1:50; BD Biosciences, clone AEH12.2H7, conjugated to BV605). Single stained samples with Ultracomp beads (5 μL; Invitrogen, cat. no. 01-2222-42) were used for compensation adjustments of the flow cytometer. After 30 min of incubation at 4° C., cells were washed twice with staining buffer, resuspended in 100 μL staining buffer and analyzed using a FACS Fortessa (BD Biosciences). Data were processed using FlowJo (BD Biosciences).

[2] = target: T1, human CD30; assay: cell-based or functional assay
[3] = target: T2, rhesus monkey (Macaca mulatta) CD30; assay: flow cytometry, Expi293F cells transfected with rhesus monkey CD30
Protocol: Cells (3×10⁴ cells/well) were incubated in polystyrene 96-well round-bottom plates (Greiner bio-one, cat. no. 650180) with serial dilutions of antibodies (ranging from 0.005 to 10 μg/mL in 3-fold dilution steps) in 100 μL staining buffer at 4° C. for 30 min. Experiments were performed in technical duplicate. After washing twice in staining buffer, cells were incubated in 50 μL secondary antibody at 4° C. for 30 min. As a secondary antibody, R-PE-conjugated goat-anti-human IgG (Jackson ImmunoResearch, UK; cat. no. 109⁻¹¹⁶-098) diluted 1:400 in staining buffer was used. Cells were washed twice in staining buffer, resuspended in 30 μL staining buffer containing 0.4% EDTA and analyzed on an iQue Screener (Intellicyt Corporation, USA). Binding curves were analyzed using non-linear regression (sigmoidal dose-response with variable slope) using GraphPad Prism V9.0.0 software (GraphPad Software, San Diego, CA, USA).

[4] = target: T1, human CD30; assay: flow cytometry, HDLM-2 cells
Protocol: (§1) Binding of CD3×CD30 bispecific antibodies to two CD30-expressing human tumor cell lines SU-DHL-1 (ALCL; ATCC, cat. no. ACC 356) and HDLM-2 (HL; ATCC, cat. no. CRL-2965) was analyzed […] by flow cytometry.
(§2) Cells (3×10⁴ cells/well) were incubated in polystyrene 96-well round-bottom plates (Greiner bio-one, cat. no. 650180) with serial dilutions of antibodies (range 0.0046 to 10 μg/mL in 3-fold dilution steps) in 50 μL staining buffer at 4° C. for 30 min. After washing twice in staining buffer, cells were incubated with 50 μL secondary antibody at 4° C. for 30 min. […] Next, cells were washed twice in staining buffer, resuspended in 100 μL staining buffer supplemented with TO-PRO-3 iodide (Thermo Fisher Scientific; cat. no. T3605; 1:8000 dilution) and analyzed on a FACSCelesta flow cytometer (BD Biosciences, USA). Live cells were gated based on FSC/SSC and absence of TOPRO-3 staining. Binding curves were analyzed by non-linear regression of log-transformed data (sigmoidal dose-response with variable slope, four parameters) using GraphPad Prism V7.02 software (GraphPad Software, San Diego, CA, USA).

[5] = target: T1, human CD30; assay: flow cytometry, SU-DHL-1 cells
Protocol: as §1, §2

Row | Binder | EC50 (read off the curve) [1] | T-cell mediated cytotoxicity of Karpas-299 cells, IC50 average [2] | T-cell mediated cytotoxicity of Karpas-299 cells, maximum lysis average [2] | EC50 (read off the curve) [3] | EC50 (read off the curve) [4] | EC50 (read off the curve) [5]
1 | bsG1-huCD3-FEALxb12-FEAR (bispecific antibody, Monovalent CD3 control; The b12 arm is HIV-1 gp120 specific) heavy 1: not shown light 1: not shown heavy 2: QVQLVQSGAEVKKPGASVKVSCQASGYRFSNFVIHWVRQAPGQRFEWMGWINPYNGNKEFSAKFQDRVTFTADTSANTAYMELRSLRSADTAVYYCARVGPYSWDDSPQDNYYMDVWGKGTTVIVSSASTKGPSVFPLAPSSKSTSGGTAALGCLVKDYFPEPVTVSWNSGALTSGVHTFPAVLQSSGLYSLSSVVTVPSSSLGTQTYICNVNHKPSNTKVDKRVEPKSCDKTHTCPPCPAPEFEGGPSVFLFPPKPKDTLMISRTPEVTCVVVAVSHEDPEVKFNWYVDGVEVHNAKTKPREEQYNSTYRVVSVLTVLHQDWLNGKEYKCKVSNKALPAPIEKTISKAKGQPREPQVYTLPPSREEMTKNQVSLTCLVKGFYPSDIAVEWESNGQPENNYKTTPPVLDSDGSFFLYSRLTVDKSRWQQGNVFSCSVMHEALHNHYTQKSLSLSPG light 2: EIVLTQSPGTLSLSPGERATFSCRSSHSIRSRRVAWYQHKPGQAPRLVIHGVSNRASGISDRFSGSGSGTDFTLTITRVEPEDFALYYCQVYGASSYTFGQGTKLERKRTVAAPSVFIFPPSDEQLKSGTASVVCLLNNFYPREAKVQWKVDNALQSGNSQESVTEQDSKDSTYSLSSTLTLSKADYEKHKVYACEVTHQGLSSPVTKSFNRGEC | ~0.5 µg/mL | – | – | – | – | –
2 | bsG1-huCD3-FEALxCD30-HRS-3-FEAR (bispecific antibody, human IgG1, kappa, lambda, Bispecific IgG1 made by controlled Fab-arm exchange) heavy 1: not shown light 1: not shown heavy 2: QVQLQQSGAELARPGASVKMSCKASGYTFTTYTIHWVRQRPGHDLEWIGYINPSSGYSDYNQNFKGKTTLTADKSSNTAYMQLNSLTSEDSAVYYCARRADYGNYEYTWFAYWGQGTTVTVSSASTKGPSVFPLAPSSKSTSGGTAALGCLVKDYFPEPVTVSWNSGALTSGVHTFPAVLQSSGLYSLSSVVTVPSSSLGTQTYICNVNHKPSNTKVDKRVEPKSCDKTHTCPPCPAPEFEGGPSVFLFPPKPKDTLMISRTPEVTCVVVAVSHEDPEVKFNWYVDGVEVHNAKTKPREEQYNSTYRVVSVLTVLHQDWLNGKEYKCKVSNKALPAPIEKTISKAKGQPREPQVYTLPPSREEMTKNQVSLTCLVKGFYPSDIAVEWESNGQPENNYKTTPPVLDSDGSFFLYSRLTVDKSRWQQGNVFSCSVMHEALHNHYTQKSLSLSPG light 2: DIVMTQSPKFMSTSVGDRVTVTCKASQNVGTNVAWFQQKPGQSPKVLIYSASYRYSGVPDRFTGSGSGTDFTLTISNVQSEDLAEYFCQQYHTYPLTFGGGTKLEINRTVAAPSVFIFPPSDEQLKSGTASVVCLLNNFYPREAKVQWKVDNALQSGNSQESVTEQDSKDSTYSLSSTLTLSKADYEKHKVYACEVTHQGLSSPVTKSFNRGEC | – | 0.068 µg/mL | 47.5% | ~0.3 µg/mL | ~0.1 µg/mL | ~0.2 µg/mL
3 | bsG1-huCD3-FEALxCD30-T105-FEAR (bispecific antibody, human IgG1, kappa, lambda, Bispecific IgG1 made by controlled Fab-arm exchange; also called bsIgG1-huCD3-FEALxCD30-T105-FEAR) heavy 1: not shown light 1: not shown heavy 2: not shown light 2: DIVMTQSQKFMSTSVGDRVSVTCKASQNVNTNVAWYQQKPGQSPEALIYSASYRYSGVPDRFTGSGSGTDFTLTISNVQSEDLAEYFCQQYNSYPLTFGSGTKLEIKRTVAAPSVFIFPPSDEQLKSGTASVVCLLNNFYPREAKVQWKVDNALQSGNSQESVTEQDSKDSTYSLSSTLTLSKADYEKHKVYACEVTHQGLSSPVTKSFNRGEC | – | 0.042 µg/mL | 52.6% | ~0.3 µg/mL | ~0.4 µg/mL | ~0.3 µg/mL
